The values below come from patent US7754689B2, “Finger-1 peptide analogs of the TGF-β superfamily” (Wyeth LLC, priority 2006, dated 2010).

No end group written: not given here.

Assay [1] concerns the target T1, BMP-12 (Homo sapiens, UniProt Q7Z4P5).
T1 sequence (Q7Z4P5 322-450): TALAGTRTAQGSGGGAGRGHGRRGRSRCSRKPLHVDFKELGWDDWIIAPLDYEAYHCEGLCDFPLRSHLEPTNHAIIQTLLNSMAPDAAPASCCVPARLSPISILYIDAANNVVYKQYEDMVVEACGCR
In words: Filter-plate binding and elution of BMP-12 on peptide-coupled affinity resins. How it is done: The coupled resins, plus an unconjugated resin for use as a control, were suspended in 16% ethanol, 150 mM NaCl, and 20 mM Tris buffer at pH 7.5 at a 25% v/v ratio (e.g., […]). A Tecan liquid-handling robot was employed to aliquot 200 μL of each slurry into one of eight rows of a 96 well polystyrene filter plate (0.45 μm hydrophilic filters, Whatman catalog number 770-1806). Spinning at 1200 g for 3 min removed the liquid phase, leaving 50 μL of wet resin on the filters. The resins were then equilibrated with the loading buffers listed in Table 6 (K is a coefficient characterizing the strength of protein binding to a particular resin in a particular buffer). […] The resins were loaded by transferring 150 μL from the load plate to the filter plate and then incubating 20 min on a shaking platform to facilitate binding. The filter plate was spun down and the filtrate collected in a 96 well UV plate. The protein concentration in the filtrate, or flow-through, was calculated as (A280-A320)/1.3. The filter plate was then washed with 150 μL of 100 mM acetic acid, followed by 150 μL of 4M guanidine-HCl and 50 mM sodium acetate at pH 4.0. The protein concentration was measured in the new filtrate as described above. […] However, for peptides 750 and 751, the binding was strong in 25 mM MES at pH 6 but weak in 50 mM acetic acid with 0.1 M NaCl at pH 3.0, which can allow an efficient binding-elution process without the need for chaotrops or organic reagents. Flow-through and acetic acid elution samples from column 4 of the plate (loaded with MES pH 6) were analyzed on a gel (FIG. 14).

Assay [2] addresses T2, BMP-12 (UniProt Q7Z4P5 322-450, limits assumed).
T2 construct: also called BMP12/GDF7
T2 sequence (looked up): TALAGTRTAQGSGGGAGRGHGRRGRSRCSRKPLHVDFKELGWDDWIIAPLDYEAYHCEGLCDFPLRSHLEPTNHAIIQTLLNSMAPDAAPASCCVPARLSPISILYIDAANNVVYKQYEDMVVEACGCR
The assay is described as follows: peptide resin, filter plate; load 6: 1M CHES pH 9.7. As for the experimental part:
(§1) The coupled resins, plus an unconjugated resin for use as a control, were suspended in 16% ethanol, 150 mM NaCl, and 20 mM Tris buffer at pH 7.5 at a 25% v/v ratio (e.g., 25% ethanol, 75% Tris buffer). A Tecan liquid-handling robot was employed to aliquot 200 μL of each slurry into one of eight rows of a 96 well polystyrene filter plate (0.45 μm hydrophilic filters, Whatman catalog number 770-1806). Spinning at 1200 g for 3 min removed the liquid phase, leaving 50 μL of wet resin on the filters. The resins were then equilibrated with the loading buffers listed in Table 6 (K is a coefficient characterizing the strength of protein binding to a particular resin in a particular buffer). […] The resins were loaded by transferring 150 μL from the load plate to the filter plate and then incubating 20 min on a shaking platform to facilitate binding. The filter plate was spun down and the filtrate collected in a 96 well UV plate. The protein concentration in the filtrate, or flow-through, was calculated as $(A280-A320)/1.3$. The filter plate was then washed with 150 μL of 100 mM acetic acid, followed by 150 μL of 4M guanidine-HCl and 50 mM sodium acetate at pH 4.0. The protein concentration was measured in the new filtrate as described above. […] Flow-through and acetic acid elution samples from column 4 of the plate (loaded with MES pH 6) were analyzed on a gel (FIG. 14).

The target in assay [3] is T2, BMP-12. The assay is described as follows: peptide resin, filter plate; load 11: 50 mM Tris, 0.25 M NaCl, 30% MPD, pH 8.0. How it is done: as §1
Assay [4] deals with T2, BMP-12. The assay is described as follows: peptide resin, filter plate; load 1: 50 mM Acetic Acid, 0.1 M NaCl, pH 2.9. As for the experimental part:
as §1

Assay [5] has as its target T2, BMP-12. In words: peptide resin, filter plate; load 3: 25 mM Na Acetate pH 5.0. As for the experimental part: as §1
Assay [6] deals with T2, BMP-12. In words: peptide resin, filter plate; load 12: 50 mM Tris, 0.1 M NaCl, 20% MPD, pH 8.0. How it is done: as §1
Assay [7] concerns the target T2, BMP-12. The assay is described as follows: peptide resin, filter plate; load 4: 25 mM MES pH 6.0. How it is done: as §1
In assay [8] the target is T2, BMP-12. In words: peptide resin, filter plate; load 10: 50 mM Tris, 0.1 M NaCl, 40% MPD, pH 8.0. As for the experimental part:
as §1

For assay [9], the target named is T2, BMP-12. In words: peptide resin, filter plate; load 2: 50 mM Acetic Acid, 0.1 M NaCl, pH 4.0. As for the experimental part:
as §1

The target in assay [10] is T2, BMP-12. The assay is described as follows: peptide resin, filter plate; load 5: 25 mM HEPES pH 7.0. How it is done:
as §1

Where [11] appears, read: loaded in condition 1: 50 mM Acetic Acid, 0.1 M NaCl, pH 2.9.
[12] abbreviates: loaded in condition 2: 50 mM Acetic Acid, 0.1 M NaCl, pH 4.0.
Where [13] appears, read: loaded in condition 3: 25 mM Na Acetate pH 5.0.
The mark [14] stands for this setting: loaded in condition 4: 25 mM MES pH 6.0.
Setting [15] is: loaded in condition 5: 25 mM HEPES pH 7.0.
Setting [16] is: 50 mM acetic acid with 0.1 M NaCl at pH 3.0.

“Ac-ELGWDDWIIAPLDYEAYHSEGLK [Peptide 749]”: the “Yield (BMP-12 recovered from resin)” value came to 86% with BMP-12 [1] (setting [11]); 88% in the assay with BMP-12 [1] (setting [12]); 90% with BMP-12 [1] (setting [13]); 88% with BMP-12 [1] (setting [14]); 102% with BMP-12 [1] (setting [15]). For the same molecule, the “binding of BMP12 by resin coupled to peptide” value (shortened to “binding of BMP12”) with BMP-12 [1] (loading buffers 1-5) was “high affinity”.

As for “Ac-LYV**SDVGWNDWIVK (Ac-LYVSDVGWNDWIVK; not fully specified (residue 3); printed as Ac-LYV**SDVGWNDWIVK) [Peptide 746]”, the “Yield (BMP-12 recovered from resin)” value with BMP-12 [1] (setting [11]) amounted to 91%; with BMP-12 [1] (setting [12]), 88%; in the assay with BMP-12 [1] (setting [13]), 97%; with BMP-12 [1] (setting [14]), 87%; with BMP-12 [1] (setting [15]), 100%.

In the case of “Ac-LYVDFSDVGWNDWIVAPPGYHAFYSHGEK [Peptide 747]”, the “Yield (BMP-12 recovered from resin)” value with BMP-12 [1] (setting [11]) was found to be 81%; in the assay with BMP-12 [1] (setting [12]) it was 68%; with BMP-12 [1] (setting [13]) it was 90%; with BMP-12 [1] (setting [14]), 88%; with BMP-12 [1] (setting [15]), 90%. The “binding of BMP12” value with BMP-12 [1] (loading buffers 1-5) is recorded as “high affinity”.

On to “Ac-RDLGWQDWIIAPEGYAAFYSDGEK [Peptide 748]”, for which the “Yield (BMP-12 recovered from resin)” value in the assay with BMP-12 [1] (setting [11]) is listed as 85%; with BMP-12 [1] (setting [12]) it was 84%; in the assay with BMP-12 [1] (setting [13]), 89%; in the assay with BMP-12 [1] (setting [14]), 87%; in the assay with BMP-12 [1] (setting [15]), 87%. In addition, the “binding of BMP12” value with BMP-12 [1] (loading buffers 1-5) is reported as “high affinity”.

Take “Ac-SDVGWNDWIVAPPGYHAFYCHGEK [Peptide 750]”: the figures for the “binding of BMP12” value with BMP-12 [1] (25 mM MES at pH 6) and in the assay with BMP-12 [1] (setting [16]) were “strong” and “weak”, respectively. Besides, the “Yield (BMP-12 recovered from resin)” value amounted to 100% in the assay with BMP-12 [1] (setting [11]); 93% with BMP-12 [1] (setting [12]); 96% with BMP-12 [1] (setting [13]); 85% with BMP-12 [1] (setting [14]); 109% in the assay with BMP-12 [1] (setting [15]).

“Ac-SDVGWNDWIVAPPGYHAFYSHGEK [Peptide 751]”: the “binding of BMP12” value with BMP-12 [1] (25 mM MES at pH 6) is listed as “strong”; in the assay with BMP-12 [1] (setting [16]), “weak”. Further, the “Yield (BMP-12 recovered from resin)” value with BMP-12 [1] (setting [11]) came out at 104%; with BMP-12 [1] (setting [12]) it was 97%; with BMP-12 [1] (setting [13]) it was 100%; with BMP-12 [1] (setting [14]) it was 92%; with BMP-12 [1] (setting [15]), 107%.

In the case of Ac-VAPPGYHAFYSHGEK [Peptide 745], the “Yield (BMP-12 recovered from resin)” value with BMP-12 [1] (setting [11]) stood at 100%; with BMP-12 [1] (setting [12]) it was 103%; with BMP-12 [1] (setting [13]) it was 105%; with BMP-12 [1] (setting [14]), 116%; with BMP-12 [1] (setting [15]) it was 103%.

Ac-LYVDFSDVGWNDWIVAPPGYHAFYSHGEK [BMP2 Full peptide 747]: the “Flow-through K” value with BMP-12 [2] was -1; in the assay with BMP-12 [3], 0; with BMP-12 [4], 10; with BMP-12 [5], 28; with BMP-12 [6], 0; with BMP-12 [7] it was 38. Moreover, the “Flow-through K” value in the assay with BMP-12 [8] was determined as 0; with BMP-12 [9] it was 47; in the assay with BMP-12 [10] it was 11. For the same molecule, the Flow-through conc with BMP-12 [2] is 0.659 mg/mL; in the assay with BMP-12 [3] it was 0.45 mg/mL; with BMP-12 [4], 0.114 mg/mL; with BMP-12 [5], 0.046 mg/mL; with BMP-12 [6], 0.438 mg/mL; with BMP-12 [7], 0.035 mg/mL. Besides, the Flow-through conc with BMP-12 [8] is 0.482 mg/mL; in the assay with BMP-12 [9], 0.029 mg/mL; with BMP-12 [10], 0.103 mg/mL. For the same molecule, the “100 mM HAc elution K” value is 6 with BMP-12 [4]; 2 with BMP-12 [5]; 1 in the assay with BMP-12 [7]; 6 with BMP-12 [9]; 1 with BMP-12 [10]. For the same molecule, the “100 mM HAc elution conc” value was determined as 0.123 mg/mL with BMP-12 [4]; 0.274 mg/mL in the assay with BMP-12 [5]; 0.324 mg/mL with BMP-12 [7]; 0.147 mg/mL in the assay with BMP-12 [9]; 0.255 mg/mL in the assay with BMP-12 [10]. Also, the “4M Gnd, 50 mM NaAc pH 4 Strip Conc” value in the assay with BMP-12 [4] came to 0.15 mg/ml; in the assay with BMP-12 [5], 0.111 mg/ml; with BMP-12 [7] it was 0.065 mg/ml; with BMP-12 [9], 0.15 mg/ml; in the assay with BMP-12 [10], 0.074 mg/ml.

For Ac-RDLGWQDWIIAPEGYAAFYSDGEK [BMP5 peptide 748], the “Flow-through K” value was -1 in the assay with BMP-12 [2]; 1 in the assay with BMP-12 [3]; 11 with BMP-12 [4]; 57 with BMP-12 [5]; 1 with BMP-12 [6]; 62 with BMP-12 [7]. Also, the “Flow-through K” value in the assay with BMP-12 [8] is 1; with BMP-12 [9] it was 59; in the assay with BMP-12 [10] it was 23. Besides, the Flow-through conc with BMP-12 [2] came out at 0.626 mg/mL; with BMP-12 [3], 0.375 mg/mL; with BMP-12 [4], 0.106 mg/mL; with BMP-12 [5], 0.024 mg/mL; with BMP-12 [6] it was 0.383 mg/mL; with BMP-12 [7] it was 0.022 mg/mL. Moreover, the Flow-through conc in the assay with BMP-12 [8] came to 0.407 mg/mL; in the assay with BMP-12 [9], 0.023 mg/mL; with BMP-12 [10], 0.055 mg/mL. In addition, the “100 mM HAc elution K” value stood at 6 in the assay with BMP-12 [4]; 2 in the assay with BMP-12 [5]; 2 in the assay with BMP-12 [7]; 6 with BMP-12 [9]; 2 with BMP-12 [10]. In addition, the “100 mM HAc elution conc” value with BMP-12 [4] stood at 0.123 mg/mL; with BMP-12 [5], 0.264 mg/mL; with BMP-12 [7] it was 0.304 mg/mL; in the assay with BMP-12 [9], 0.151 mg/mL; with BMP-12 [10], 0.257 mg/mL. Also, the “4M Gnd, 50 mM NaAc pH 4 Strip Conc” value in the assay with BMP-12 [4] was 0.177 mg/ml; with BMP-12 [5] it was 0.14 mg/ml; in the assay with BMP-12 [7], 0.091 mg/ml; with BMP-12 [9] it was 0.229 mg/ml; in the assay with BMP-12 [10] it was 0.105 mg/ml.
